The target in one assay is T1, 小鼠EGFR (mouse EGFR) (mouse, UniProt Q01279 25-1210, limits assumed).
T1 construct: Endogenous mouse protein in the host animals; no construct described
As to the kind of experiment: not described; stated in the results of the xenograft example as the reason why tolerability could not be assessed.

A further assay addresses T2, 小鼠c-Met (mouse c-Met) (mouse, UniProt P16056 25-1379, limits assumed).
T2 construct: Endogenous mouse protein in the host animals; no construct described
The assay is described as above.

T2 sequence (P16056 25-1379 limits assumed): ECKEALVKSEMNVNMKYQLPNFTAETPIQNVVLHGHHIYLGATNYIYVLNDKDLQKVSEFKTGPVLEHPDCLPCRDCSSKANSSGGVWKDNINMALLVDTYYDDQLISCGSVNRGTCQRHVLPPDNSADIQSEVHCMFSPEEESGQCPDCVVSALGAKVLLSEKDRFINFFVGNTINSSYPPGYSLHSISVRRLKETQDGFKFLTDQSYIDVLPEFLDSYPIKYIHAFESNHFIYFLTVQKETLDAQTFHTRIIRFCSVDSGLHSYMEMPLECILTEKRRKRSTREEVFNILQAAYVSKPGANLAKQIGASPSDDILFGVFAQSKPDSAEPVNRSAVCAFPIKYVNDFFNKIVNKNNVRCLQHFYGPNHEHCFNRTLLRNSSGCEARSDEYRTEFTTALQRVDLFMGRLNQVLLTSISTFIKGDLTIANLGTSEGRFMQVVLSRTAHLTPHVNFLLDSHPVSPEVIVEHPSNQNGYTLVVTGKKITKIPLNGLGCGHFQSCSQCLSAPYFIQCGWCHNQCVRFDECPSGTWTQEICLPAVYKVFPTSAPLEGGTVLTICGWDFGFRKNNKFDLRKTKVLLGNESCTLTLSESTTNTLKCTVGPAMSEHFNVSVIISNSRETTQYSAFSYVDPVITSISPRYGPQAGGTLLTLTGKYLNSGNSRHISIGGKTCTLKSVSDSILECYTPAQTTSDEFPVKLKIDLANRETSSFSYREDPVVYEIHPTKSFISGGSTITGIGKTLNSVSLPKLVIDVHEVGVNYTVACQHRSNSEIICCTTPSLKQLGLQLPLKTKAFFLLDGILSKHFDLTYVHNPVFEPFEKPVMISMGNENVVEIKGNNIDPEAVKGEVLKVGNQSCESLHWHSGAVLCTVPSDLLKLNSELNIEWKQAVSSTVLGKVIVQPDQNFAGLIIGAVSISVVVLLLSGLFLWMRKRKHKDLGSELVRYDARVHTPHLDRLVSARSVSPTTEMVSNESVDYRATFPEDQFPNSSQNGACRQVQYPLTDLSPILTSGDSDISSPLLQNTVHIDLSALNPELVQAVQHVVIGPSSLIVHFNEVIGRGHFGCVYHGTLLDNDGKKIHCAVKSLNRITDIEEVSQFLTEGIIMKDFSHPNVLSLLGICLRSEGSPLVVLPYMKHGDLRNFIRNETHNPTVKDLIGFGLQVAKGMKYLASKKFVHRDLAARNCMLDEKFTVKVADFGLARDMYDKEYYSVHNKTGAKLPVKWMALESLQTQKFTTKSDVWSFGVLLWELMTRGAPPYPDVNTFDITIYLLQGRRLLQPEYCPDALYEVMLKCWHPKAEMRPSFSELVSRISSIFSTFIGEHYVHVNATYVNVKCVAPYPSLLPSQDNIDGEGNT

B1: JNJ-61186372 (bispecific antibody, human IgG1, kappa)
heavy 1: not shown
light 1: not shown
heavy 2: not shown
light 2: DIQMTQSPSSVSASVGDRVTITCRASQGISNWLAWFQHKPGKAPKLLIYAASSLLSGVPSRFSGSGSGTDFTLTISSLQPEDFATYYCQQANSFPITFGQGTRLEIKRTVAAPSVFIFPPSDEQLKSGTASVVCLLNNFYPREAKVQWKVDNALQSGNSQESVTEQDSKDSTYSLSSTLTLSKADYEKHKVYACEVTHQGLSSPVTKSFNRGEC
notes: also called CNTO4424
For the molecule B1, the binding result in the assay with 小鼠EGFR (mouse EGFR) and in the assay with 小鼠c-Met (mouse c-Met) was “no binding” throughout.

These data come from patent CN113840601A (dated 2021).
